# Patent US20180273635A1 (Zymeworks, published 2018)
# Numbering of substitutions follows the chain as printed. Numbers in names are those of the source.
# B1: variant 12497 (antibody, human IgG1, kappa)
# heavy: EVQLVESGGGLVQPGGSLRLSCAASGFTFTDYTMDWVRQAPGKGLEWVADVNPNSGGSIYNRRFKGRFTLSVDRSKNTLYLQMNSLRAEDTAVYYCARNLGPSFYFDYWGQGTLVTVSSASTKGPSVFPLAPSSKSTSGGTAALGCLVKDYFPEPVTVSWNSGALTSGVHTFPAVLQSSGLYSLSSVVTVPSSSLGTQTYICNVNHKPSNTKVDKKVEPKSCDKTHTCPPCPAPELLGGPSVFLFPPKPKDTLMISRTPEVTCVVVDVSHEDPEVKFNWYVDGVEVHNAKTKPREEQYNSTYRVVSVLTVLHQDWLNGKEYKCKVSNKALPAPIEKTISKAKGQPREPQVYVYPPSRDELTKNQVSLTCLVKGFYPSDIAVEWESNGQPENNYKTTPPVLDSDGSFALVSKLTVDKSRWQQGNVFSCSVMHEALHNHYTQKSLSLSPG
# light: not shown
# chain: not shown
# notes: OA pertuzumab variant, HC Q61R (Kabat); also called v12497
# B2: variant 12503 (antibody, human IgG1, kappa)
# heavy: B1 heavy with R62Q, S75H
# light: not shown
# chain: not shown
# notes: OA pertuzumab variant, HC S74H (Kabat); also called v12503
# B3: variant 12480 (antibody, human IgG1, kappa)
# heavy: B1 heavy with T30Q, R62Q
# light: not shown
# chain: not shown
# notes: OA pertuzumab variant, HC T30Q (Kabat); also called v12480
# B4: variant 12489 (antibody, human IgG1, kappa)
# heavy: B1 heavy with G57M, R62Q
# light: not shown
# chain: not shown
# notes: OA pertuzumab variant, HC G56M (Kabat); also called v12489
# B5: variant 12504 (antibody, human IgG1, kappa)
# heavy: B1 heavy with R62Q, S75A
# light: not shown
# chain: not shown
# notes: OA pertuzumab variant, HC S74A (Kabat); also called v12504
# B6: variant 12502 (antibody, human IgG1, kappa)
# heavy: B1 heavy with R62Q, S75W
# light: not shown
# chain: not shown
# notes: OA pertuzumab variant, HC S74W (Kabat); also called v12502
# B7: variant 12491 (antibody, human IgG1, kappa)
# heavy: B1 heavy with G57F, R62Q
# light: not shown
# chain: not shown
# notes: OA pertuzumab variant, HC G56F (Kabat); also called v12491
# B8: variant 12506 (antibody, human IgG1, kappa)
# heavy: B1 heavy with R62Q, K76W
# light: not shown
# chain: not shown
# notes: OA pertuzumab variant, HC K75W (Kabat); also called v12506
# B9: variant 12490 (antibody, human IgG1, kappa)
# heavy: B1 heavy with G57Y, R62Q
# light: not shown
# chain: not shown
# notes: OA pertuzumab variant, HC G56Y (Kabat); also called v12490
# B10: variant 12505 (antibody, human IgG1, kappa)
# heavy: B1 heavy with R62Q, K76E
# light: not shown
# chain: not shown
# notes: OA pertuzumab variant, HC K75E (Kabat); also called v12505
# B11: variant 12482 (antibody, human IgG1, kappa)
# heavy: B1 heavy with T30F, R62Q
# light: not shown
# chain: not shown
# notes: OA pertuzumab variant, HC T30F (Kabat); also called v12482
# B12: variant 12478 (antibody, human IgG1, kappa)
# heavy: B1 heavy with T30Y, R62Q
# light: not shown
# chain: not shown
# notes: OA pertuzumab variant, HC T30Y (Kabat); also called v12478
# B13: variant 12479 (antibody, human IgG1, kappa)
# heavy: B1 heavy with T30N, R62Q
# light: not shown
# chain: not shown
# notes: OA pertuzumab variant, HC T30N (Kabat); also called v12479
# B14: Variant 14056 (antibody, human IgG1, kappa)
# heavy: B1 heavy with T30Q, R62Q, K76W
# light: not shown
# chain: not shown
# notes: OA (one-armed) format; clones 8775, 8781, 4372; also called v14056
# B15: Variant 14051 (antibody, human IgG1, kappa)
# heavy: B1 heavy with T30Q, R62Q
# light: not shown
# chain: not shown
# notes: OA (one-armed) format; clones 7815, 8781, 4372; also called v14051
# B16: Variant 14058 (antibody, human IgG1, kappa)
# heavy: B1 heavy with T30Q, R62Q, K76W, S103W
# light: not shown
# chain: not shown
# notes: OA (one-armed) format; clones 8784, 7917, 4372; also called v14058
# B17: Variant 14063 (antibody, human IgG1, kappa)
# heavy: B1 heavy with T30Q, G57Y, R62Q
# light: not shown
# chain: not shown
# notes: OA (one-armed) format; clones 8788, 8781, 4372; also called v14063
# B18: Variant 14044 (antibody, human IgG1, kappa)
# heavy: B1 heavy with R62Q, K76W, S103W
# light: not shown
# chain: not shown
# notes: OA (one-armed) format; clones 8774, 7919, 4372; also called v14044
# B19: Variant 14046 (antibody, human IgG1, kappa)
# heavy: B1 heavy with R62Q, K76W
# light: not shown
# chain: not shown
# notes: OA (one-armed) format; clones 7844, 8781, 4372; also called v14046
# B20: Variant 14062 (antibody, human IgG1, kappa)
# heavy: B1 heavy with T30Q, G57Y, R62Q, S103W
# light: not shown
# chain: not shown
# notes: OA (one-armed) format; clones 8789, 7919, 4372; also called v14062
# B21: Variant 14042 (antibody, human IgG1, kappa)
# heavy: B1 heavy with T30Q, G57Y, R62Q
# light: not shown
# chain: not shown
# notes: OA (one-armed) format; clones 8788, 1811, 4372; also called v14042
# B22: Variant 14047 (antibody, human IgG1, kappa)
# heavy: B1 heavy with T30Q, R62Q, K76W
# light: not shown
# chain: not shown
# notes: OA (one-armed) format; clones 8775, 7917, 4372; also called v14047
# B23: Variant 14045 (antibody, human IgG1, kappa)
# heavy: B1 heavy with T30Q, R62Q, K76W, S103W
# light: not shown
# chain: not shown
# notes: OA (one-armed) format; clones 8784, 1811, 4372; also called v14045
# B24: Variant 14049 (antibody, human IgG1, kappa)
# heavy: B1 heavy with T30Y, R62Q, K76W
# light: not shown
# chain: not shown
# notes: OA (one-armed) format; clones 8776, 7919, 4372; also called v14049
# B25: Variant 14057 (antibody, human IgG1, kappa)
# heavy: B1 heavy with R62Q, K76W, S103W
# light: not shown
# chain: not shown
# notes: OA (one-armed) format; clones 8774, 8781, 4372; also called v14057
# B26: Variant 14060 (antibody, human IgG1, kappa)
# heavy: B1 heavy with T30Q, R62Q, S103W
# light: not shown
# chain: not shown
# notes: OA (one-armed) format; clones 8780, 8781, 4372; also called v14060
# B27: Variant 14059 (antibody, human IgG1, kappa)
# heavy: B1 heavy with T30Y, R62Q, K76W
# light: not shown
# chain: not shown
# notes: OA (one-armed) format; clones 8776, 8781, 4372; also called v14059
# B28: variant 9996 (antibody)
# heavy: B1 heavy with T30A, A49G, R62Q, L70F
# light: not shown
# Fc: not shown
# notes: OA format; also called v9996
# Biological target: T1, Recombinant human HER2 (human, UniProt P04626 23-652)
# T1 construct: extracellular domain; analyte of the SPR assays; also called HER2 ECD; ECD2 of HER2
# Test: SPR, pre-SEC; ratio to WT v10013;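 also: SPR on Biacore T200 at 25 °C, constructs captured via anti-human Fc on CM5 chip, HER2 ECD as analyte, 1:1 Langmuir global fit, after protein A purification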
# Procedure: (§1) The affinity towards HER2 ECD of the samples was measured by SPR on a Biacore T200 as follows. Between 2000 and 4000 RU of anti-human Fc injected at concentration between 5 and 10 μg/ml was immobilized on a CM5 chip using standard amine coupling. Antigen-binding constructs were captured on the anti-human Fc (injected at concentration at 0.51 microg/mL in PBST, 1 min at 10 microl/min) at response levels ranging from 120-270 RU. […] HER2 dilutions were analyzed in duplicates. Sensograms were fit globally to a 1: 1 Langmuir binding model, using the software provided with the Biacore T200. All experiments were conducted at 25° C.
# (§2) The affinity of antigen-binding constructs in OA format was determined by SPR following protein A purification. […] Antigen-binding constructs in FSA format were purified by protein A affinity and SEC prior to assessment of affinity by SPR.
row,Binder,"Ka, mut/Ka, WT"
1,B1,1.4
2,B2,1.3
3,B3,4.6
4,B4,1.4
5,B5,1.1
6,B6,8.2
7,B7,2.1
8,B8,30.6
9,B9,2.5
10,B10,4.2
11,B11,2.5
12,B12,3.5
13,B13,3.9

# Biological target: T2, Recombinant human HER2 (human, UniProt P04626 23-652)
# T2 construct: extracellular domain; Analyte of the SPR assays; also called HER2 ECD; ECD2 of HER2
# Test: SPR, 25 C; Ka ratio to WT v10013;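 also: constructs captured via anti-human Fc on CM5 chip, HER2 ECD as analyte in duplicate dilutions, sensorgrams globally fit to 1:1 Langmuir model on Biacore T200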
# Procedure: as §1
row,Binder,"Ka, mut/Ka, WT"
1,B14,~148 fold
2,B15,~62 fold
3,B16,4 fold
4,B17,~124 fold
5,B18,57 fold
6,B19,~212 fold
7,B20,26 fold
8,B21,15 fold
9,B22,~188 fold
10,B23,~229 fold
11,B24,~103 fold
12,B25,5 fold
13,B26,2 fold
14,B27,~269 fold

# Biological target: T1, Recombinant human HER2
# Test: SPR, post-SEC; ratio to WT v10013
# Procedure: as §1, §2
row,Binder,"Ka, mut/Ka, WT"
1,B1,1.6
2,B2,0.8
3,B3,4.7
4,B4,1.6
5,B5,0.8
6,B6,5.3
7,B7,2.1
8,B8,30.6
9,B9,2.7
10,B10,3.7
11,B11,2.9
12,B12,3.6
13,B13,4.7

# Biological target: T2, Recombinant human HER2
# Test: calculated from the SPR Ka ratio to WT v10013;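 also: SPR at 25 °C with constructs captured on an anti-human Fc chip and HER2 extracellular domain as analyte, kinetics fitted to a 1:1 Langmuir model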
# Procedure: as §1
row,Binder,ΔΔG
1,B14,-3 kcal/mol
2,B15,-2.4 kcal/mol
3,B16,-0.9 kcal/mol
4,B17,-2.9 kcal/mol
5,B18,-2.4 kcal/mol
6,B19,-3.2 kcal/mol
7,B20,-1.9 kcal/mol
8,B21,-1.6 kcal/mol
9,B22,-3.1 kcal/mol
10,B23,-3.2 kcal/mol
11,B24,-2.7 kcal/mol
12,B25,-0.9 kcal/mol
13,B26,-0.3 kcal/mol
14,B27,-3.3 kcal/mol

# Biological target: T1, Recombinant human HER2
# Test: SPR, variant captured on anti-human Fc, HER2 flowed, 25 C, pre-SEC;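 also: HER2 extracellular domain binding on Biacore T200, CM5 chip with amine-coupled anti-human Fc, duplicate antigen dilutions, global 1:1 Langmuir fit, measured after protein A purification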
# Procedure: as §1, §2
row,Binder,Kd
1,B28,2 nM
2,B1,14 nM
3,B2,15 nM
4,B3,4.2 nM
5,B4,14 nM
6,B5,18 nM
7,B6,2.4 nM
8,B7,9.1 nM
9,B8,0.64 nM
10,B9,7.7 nM
11,B10,4.6 nM
12,B11,7.7 nM
13,B12,5.6 nM
14,B13,5 nM

# Biological target: T1, Recombinant human HER2
# Test: SPR, variant captured on anti-human Fc, HER2 flowed, 25 C, post-SEC
# Procedure: as §1, §2
row,Binder,Kd
1,B28,1.9 nM
2,B1,13 nM
3,B2,25 nM
4,B3,4.4 nM
5,B4,13 nM
6,B5,27 nM
7,B6,3.9 nM
8,B7,10 nM
9,B8,0.68 nM
10,B9,7.8 nM
11,B10,5.7 nM
12,B11,7.3 nM
13,B12,5.8 nM
14,B13,4.4 nM

# Biological target: T2, Recombinant human HER2
# Test: SPR, Biacore T200, 25 C; variant captured on anti-human Fc, HER2 flowed;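 also: HER2 extracellular domain analyte run as duplicate dilutions over amine-coupled anti-Fc on a CM5 chip, rates from global sensorgram fitting with a 1:1 Langmuir model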
Binder,Kd,koff,kon
B14,~0.11 nM,~8.4e-06 s⁻¹,76000 M⁻¹ s⁻¹
B15,~0.31 nM,~1.64e-05 s⁻¹,53000 M⁻¹ s⁻¹
B16,3.9 nM,0.00092 s⁻¹,240000 M⁻¹ s⁻¹
B17,~0.13 nM,~8.3e-06 s⁻¹,63000 M⁻¹ s⁻¹
B18,0.33 nM,3.2e-05 s⁻¹,96000 M⁻¹ s⁻¹
B19,~0.091 nM,~9.1e-06 s⁻¹,100000 M⁻¹ s⁻¹
B20,0.63 nM,3.5e-05 s⁻¹,56000 M⁻¹ s⁻¹
B21,1.2 nM,5.9e-05 s⁻¹,47000 M⁻¹ s⁻¹
B22,~0.1 nM,~7.1e-06 s⁻¹,70000 M⁻¹ s⁻¹
B23,~0.084 nM,~5.9e-06 s⁻¹,71000 M⁻¹ s⁻¹
B24,~0.19 nM,~1.4e-05 s⁻¹,77000 M⁻¹ s⁻¹
B25,3.6 nM,0.00045 s⁻¹,120000 M⁻¹ s⁻¹
B26,9.2 nM,0.0013 s⁻¹,140000 M⁻¹ s⁻¹
B27,~0.061 nM,~5.3e-06 s⁻¹,88000 M⁻¹ s⁻¹
